# Measured values reported in patent US20180017550A1.
# Molecular target: human APC mutation cluster region fragment (codons 1,294-1,369) with N-terminal VSV tag, 4 glycine s (human) (UniProt P25054)
# Sequence (P25054 other isoform, or with tags, fused parts or gaps limits assumed): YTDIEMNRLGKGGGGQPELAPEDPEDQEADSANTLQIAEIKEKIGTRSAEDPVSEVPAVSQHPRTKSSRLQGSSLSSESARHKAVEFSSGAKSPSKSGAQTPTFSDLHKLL
substance,measurement,value
"anti-VSV antibody conjugated to the Cy3 fluorophore (clone P5D4; Sigma-Aldrich, St. Louis, Mo.)",signal to noise ratio,179 :1
